Assay: yeast display, Sf9 membrane polyspecificity reagent, FACS + sequencing; frameworks hold sequencing errors
In short: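 Nanobodies came from a synthetic yeast display library in Saccharomyces cerevisiae BJ5465, induced with galactose for 36–48 hours and stained for 1 hour at 4 °C with 10% biotinylated, detergent-solubilized Sf9 membrane reagent. Cells were enriched on streptavidin microbeads and then FACS-sorted, with low and high (top ~1%) gates set on anti-HA fluorescence for expression and streptavidin fluorescence for reagent binding. Each polyreactivity label reflects the gate a clone came from. Genes were amplified by colony PCR, sequenced by MiSeq 2 × 250 and filtered by CDR length.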
In the case of “QVQLVESGGGLVQAGGSLRLSCAASGSTIFGNVMGWYRQAPGKERELVAVITNRGGSTYYADSVKGRFTISRDNAKNTVYLQMNSLKPEDTAVYYCATRSRPRSYYYWGQGTQVTVSS”, the “polyreactivity (PSR sort gate)” value is reported as “high polyreactivity”.
For “QVQLVESGGGLVQAGGSLRLSCAASGGIFIFYAMGWYRQAPGKERELVAAISNVSSTNYADSVKGRFTISRDNAQNTVYLQMNSLKPEDTAVYYCNAVCVPSEYYSWGQGSQVTVSS”, the “polyreactivity (PSR sort gate)” value was “low polyreactivity”.
In the case of “QVQLVESGGGLVQAGGSLRLSCAASGSTFVRNAMGWYRQATGKERELVAAITTSGARTYYADSVKGRFTISRDNAKNTVYLQMNSLKPEDTAVYYCAAEYKGRTYRFDYWGQGTQVTVSS”, the “polyreactivity (PSR sort gate)” value is reported as “low polyreactivity”.
For “QVQLVESGGGLVQAGGSLRLSCAASGSTFRRYTMGWYRQAPGKERELVAAISRSAGSTSYADSVKGRFTISRDNAKNTVYLQMNSLKPEDTAVYYCNARVPLRQYSNYYWGQGTQVTVSS”, the “polyreactivity (PSR sort gate)” value was “high polyreactivity”.
With “QVQLVESGGGLVQAGGSLRLSCAASGSTFEYYAMGWYRQAPGKERELVATITLIAGSTYADSVKGRFTISRDNAKNTVYLQMNSLKPEDTAVYYCAADDGGYESPEFVYGGRGDYWGQGTQVTVSS” the “polyreactivity (PSR sort gate)” value was “low polyreactivity”.
In the case of “QVQLVESGGGLVQAGGSLRLSCAASGFTFVIYAMGWYRQAPGKERELVAAIRSGGRTYYADSVKGRFTISRDNAKNTVYLQMNSLKPEDTAVYYCAAVPALKWYGYEYWGQGTQVTVSS”, the “polyreactivity (PSR sort gate)” value is reported as “high polyreactivity”.
For “QVQLVESGGGLVQAGGSLRLSCAASGSTFKRYAMGWYRQAPGKERELVASISQRGGTTYYADSVKGRFTISRDNAKNTVDLQMNSLKPEDTAVYYCAKGFGWTRTIYDYWGQGTQVTVSS”, the “polyreactivity (PSR sort gate)” value was “high polyreactivity”.
In the case of “QVQLVESGGGLVQAGGSLRLSCAASGSIFTLYAIGWSRQAPGKERELVAAISRRGGSTYYADSVKGRFTISRDNAKNTVYLQMNSLKPEDTAVYYCNAYRSNYLIGSSSYGLDYWGHGTQVTVSS”, the “polyreactivity (PSR sort gate)” value is reported as “high polyreactivity”.
With “QVQLVESGGGLVQAGGSLRLSCAASGFTFSAYAMGWYRQAPGKERELVVAISLSGGSTYYADSVKGRFTISRDNAKNTVYLQMNSLKPEDTAVYYCNADSYWHWGEWLYAPYDYWGQGTQVTVSS” the “polyreactivity (PSR sort gate)” value was “low polyreactivity”.
With “QVQLVESGGGLVQAGGSLRLSCAASGRIFYLYAMGWYRQAHGKERELVATINTSGGITYYADSVKGRFTISLDNAKNTVYLQLNSLIPEDTAVYYCNADWEWQYFYFRPGGYWGQGTQETVSS” the “polyreactivity (PSR sort gate)” value was “low polyreactivity”.
In the case of “QVQLVESGGGLVQAGGSLSLSSAASGRTFSGYAMGWYRQAPGKERELVAAIDRGDGTNYADSVKGRFTISRDNAKNTVYLQMNSLKPEDTAVYYCAADYSYGSTSHTYTGFDYWGQGTQVTVSS”, the “polyreactivity (PSR sort gate)” value is reported as “low polyreactivity”.
For “QVQLVESGGGLVQAGCSLGLSCAASGRIVDYKAMGWYRQAPGKEWELVATLTSSSVRTHYPDSLKGRFSISRDNAKNTVYLQMNSLNPEDTSVYYWNAAYGPRYPRRYDYWGQGTQVTVSS”, the “polyreactivity (PSR sort gate)” value was “low polyreactivity”.
In the case of “QVQLVESGGGLVQAGGSLRLSCAASGSNFRYYALGWYRQAPGKERELVAGNTGSTGRTYYADSVKGRFTISRDNAKNTVYLQMNRLKPEDTAVYYCATGIYRARTSSFRMGYWGQGTHVTVSS”, the “polyreactivity (PSR sort gate)” value is reported as “low polyreactivity”.
With “QVQLVESGGGLVQAGGSLRLSCAASGLTFERYAMGWYRQAPGKERELVAAISIRGGSTYYADSVKGRFTISRDNAKNTVYLQMNSLKPEDTAVYYCNAESFSFYPSWHEYDYWGQGTQVTVSS” the “polyreactivity (PSR sort gate)” value was “low polyreactivity”.
In the case of “QVQLVESGGGLVQAGGSLRLSCAASGSTFDINVMGWYRQAPGKERELVAAITWSGGRTYYADSVKGRFTISRDNAKNTVYLQMNSLKPEDTAVYYCAARVGRGVYRYVPREFDYWGQGTQVTVSS”, the “polyreactivity (PSR sort gate)” value is reported as “high polyreactivity”.
For “QVQLVESGVGLVQAGGSLRLSCADSGLILSKYAKVWYRPAPGKEREFVAAITQTGSRTYYADSVKGRFTSSRDNAKNTVYLQMNSLKPEDTAVYYCNAVNYRSSRDSGYWGQGTQVTVSS”, the “polyreactivity (PSR sort gate)” value was “high polyreactivity”.
For “QVQLVESGGGLVQAGGSLRLSCAASGLIFPRYGMVWYRKAPGKERELVAAISWSGGSTYYADSVKGRFTISRDNAKNTVYLQMNSLKPEDTAVYYCAVLSNRGVYGSDYWGQGTQVTVSS”, the “polyreactivity (PSR sort gate)” value was “high polyreactivity”.
With “QVQLVESGGGLVHAGGSLRLSCAASGSIFPDNTMGWYRQAPGKERELVAAIDGRGGTTYYADSVKGRFTISRDNAKNTVYLQMNSLKPEDTAVYYCARDIGHSARYDYWGQGTQVTVSS” the “polyreactivity (PSR sort gate)” value was “low polyreactivity”.
In the case of “QVQLVESGGGLVQAGGSLRLCCAASGSNFRRNAMGLYRQAPGKERELVAAMSWTSTRTYYADSVKVRFTISRDNAKNTVYLQMNSLKPEDTAVYYCAADSNGGGFQLYSYDSGLYYWGQGTQVTVSS”, the “polyreactivity (PSR sort gate)” value is reported as “high polyreactivity”.
In the case of “QVQLVESGGGLVQAGGSLRLSCAASGFTIIIYAMGWYRQAPGKERQLVAAINTSGTRTYYADSVKGRFTISRDNAKNTVYLQMNSLKPEDTAVYYCAARSGYKGEHGDRDDYWGQGTQVTVSS”, the “polyreactivity (PSR sort gate)” value is reported as “high polyreactivity”.
In the case of “QVQLVESGGGLVQAGGSLRLSCAASGSTFYNNAMGWYRQAPGKERELVAVITDSGGRTYYADSVKGRFTISRDNAKNTVYLQMNSLKPEDTAVYYCAVVAPGGGDDYWGQGTQVTVSS”, the “polyreactivity (PSR sort gate)” value is reported as “low polyreactivity”.
In the case of “QVQLVESGGGLVQAGGSLRLSCAASGLTFLVYAMGWYRQAPGKERELVAAITSIGDSTFYADSVKGRFTISRDNAKNTVYLQMNSLKPEDSAVYYCNADGPAGDIKFTLMDYDYWGQGTQVTVSS”, the “polyreactivity (PSR sort gate)” value is reported as “low polyreactivity”.
For “QVQLVESGGGLVQAGGTLRLSCAASGSIFTYNAMGWYRQAPGKERELVAAITRSGGRTYYADSVKGRFTISRDNAKNTVYLQMNSLKPEDNAVYYCNTLRVGWGQGTQVTVSS”, the “polyreactivity (PSR sort gate)” value was “high polyreactivity”.
In the case of “QVQLVESGGGLVQAGGSLRLSCAASGIIFSSYAMGWYRQAPGKERELVAAISWSGGSTYYADSVKGRFTISRDNAKNTVYLQMNSLKPEDTAVYYCAAYPVWYYEYDYWGQGTQVTVSS”, the “polyreactivity (PSR sort gate)” value is reported as “low polyreactivity”.
For “QVQLVESGGGLVQAGGSLRLSCAASGRNLGYNAMGWYRQAPGKERELVAAISWSGGSTYYADSVKGRFTISRDNAKNTVYLQMNSLKPEDTAVYYCAARNNRYPLYNYWGQGTQVTVSS”, the “polyreactivity (PSR sort gate)” value was “low polyreactivity”.
In the case of “QVQLVESGGGLVQAGGSLRLSCAASARTFSAYAMGWYRPAPGKERELVARITSVDSTNYADSVKGRFTISRDNAKNTVYLQMNSLKPEDTAVYYCNATFGYPFVDYDDYWGQGTQVTVSS”, the “polyreactivity (PSR sort gate)” value is reported as “low polyreactivity”.
For “QVQLVESGGGLVQAGGSLRLSCAASGSTSAYYVMGWYRQAPGKERELVAAIDFSGDSTYYADSVKGRFTISRDNAKNTVYLQMNSLKPEDTAVYYCAAELFNYSSLVSYEYWGQGTQVTVSS”, the “polyreactivity (PSR sort gate)” value was “high polyreactivity”.
With “QVQLQEIGGSLVQAGGSLRLSGAASGNILVLPPGQVSPGAERELDATITGGSITYYADSVKGRFTISRDNAKNTVYLQMNSLKPEDTAVYYCAAVSLRKSYGYNYWGQGTLVTVSS” the “polyreactivity (PSR sort gate)” value was “high polyreactivity”.
With “QVQLVESGGGLVQAGGSLRLSCAASGFTFFSYTMGWYRQAPGKERELVAAISKRGSRTYYADSVKGRFTISRDNAKNTVYLQRNSLKPEDTAVYYCAADCGREVVLRREDYWGQGTQVTVSS” the “polyreactivity (PSR sort gate)” value was “high polyreactivity”.
With “QVQLVESGGGLVQAGGSLRLSCAASGSTFSDYTMGWSRQAPGKDRVLVAALNAGGSTNYADSVKGRFTISRDNAKNTVYLQMNSLKPEDTAVYYSNADSSYLANGYWDPDYTPYDSWGQGTQVTVSS” the “polyreactivity (PSR sort gate)” value was “low polyreactivity”.
In the case of “QVQLVESGGGLVQAGGSLRLSCAASVSTFWFYAMGWYRQAPGKERELVAVISNSGSTYYADSVKGRFTISRDNAKNTVYLQMNSLKPEDTAVYYCAADVEGWTVESDVYRVGYDYWGQGTQVTVSS”, the “polyreactivity (PSR sort gate)” value is reported as “low polyreactivity”.
In the case of “QVQLVESGGGLVQAGGSLRLSCAASGSIFSTYAMGWYRQAPGKERELVAAITRRGGSTYYADSVKGRFTISRDNAKNTVYLQMNSLKPEDTAVYYCNAAAKSRMDYWGQATQVTVSS”, the “polyreactivity (PSR sort gate)” value is reported as “high polyreactivity”.
In the case of “QVQLVESGGGLVQAGGSLRLSCAASGFIIYRNARGWYRQAPGKERELVAGISSGGSTNYADSVKGRFTISRDNAKNTVYLQMTSLKPEDTADYYCATRVYALWFGRYDYWGQGTQVTVSS”, the “polyreactivity (PSR sort gate)” value is reported as “high polyreactivity”.
In the case of “QVHLVDSGGGLVQAGGSLRLSCAASGYIFPYNAMGWYRQEPGKERELVATITGTGGSTYYADSVKGRFTISRDNAKITVYLQMNSLKPEDTAVFYCAADLSIRYDHEYGYWGQGTQLTVSS”, the “polyreactivity (PSR sort gate)” value is reported as “low polyreactivity”.
For “QVQLVESGGGLVQAGGSLRLSCAASGSIIYNNAMGWYRQAPGKERELVAAIRSTGTRTYYADSVKGRFTISRDNAKNTVYLQMNSLKPEDTAVYYCAVGDYGLWSYVYWGQGTQVTVSS”, the “polyreactivity (PSR sort gate)” value was “low polyreactivity”.
With “QVQLVESGGGLVQAGGSLRLSCAASGLIFYGYVMGWYRHAPGKERELVAGISRNYGSTYYADSVKGRFTISRDNAKHTVYLQMNSLKPEDTAVYYCAALTFEAWAGEDYWGQGTQVTVTS” the “polyreactivity (PSR sort gate)” value was “low polyreactivity”.
In the case of “QVQLVESGGGLVQAGGSLRLSCAASGFTLKSYAMGWYRQAPGKERELVASISRRGGSTYYADSVKGRFTISRDNAKNTVYLQMNSLKPEDTAVYYCAADRSGSSDGVYWGQGTQVTLSS”, the “polyreactivity (PSR sort gate)” value is reported as “high polyreactivity”.
With “QVQLVESGGGLVQAGGSLRLSCAASGNIFKQYTMGWYRQAPGKERELVAAIRSRGGSTYYADSVKGRLTISRDNAKNTVYLQMNSLKPEDTAVYYCAKVLGRTTLRMDYWGQGPQVTVSS” the “polyreactivity (PSR sort gate)” value was “high polyreactivity”.
With “QVQLVESGGGLVQAGGSLRLSCAASGRIFSFNGMGWYRPAPGKERELVAAITSSGGRTYYADSVKGRFTISRDNAKNTVYLQMNSLIPEDTAVYYCAAELAWDYYWGQGTQVTVSS” the “polyreactivity (PSR sort gate)” value was “low polyreactivity”.
For “QVQLVESGGGLVQAGGSLRLSCAATGIIFGTYAMGWYLQAPGTERELVAVISWRGGTYADSVKRRFTISRDNAKNTVYLQMNSLKPEDSAVYYCNARTWARLGSYWWIVDSWGQGTQVTVSS”, the “polyreactivity (PSR sort gate)” value was “high polyreactivity”.
For “QVQLVESGGGLVQAGGSLRLSCAASGGTFFGYAMGWYRPAPGKERELVAAISGSGGRTYYADSVKGRFTISRDNAKNTVYLQMNSLKPEDTAVYYCAADATHETYYPFYYWGQGTQVTVSS”, the “polyreactivity (PSR sort gate)” value was “high polyreactivity”.
For “QVQLVESGGGLVQAGGSLRLSCAASGLTIQRNDMGWYRQAPGKEREFVATITSNAGSTYYADSVKGRFTISRDNAKNTVYLQMNSLKPEDTAVYYCARERWWGGSDYWGQGTQVTVSS”, the “polyreactivity (PSR sort gate)” value was “high polyreactivity”.
In the case of “QVQLVESGGGLVQAGGSLRLSCAASGRIFNIYAMGWYRQAPGKERELVAAIRGRGGSTYYADSVKGRFTISRDNAKNTVYLQMNSLKPEDTAVYYCAADSGPFYSKTQTRYGYWGQGTQVTVSS”, the “polyreactivity (PSR sort gate)” value is reported as “high polyreactivity”.
